Data taken from publication PMC12450638 (The Journal of Biological Chemistry, 2025).

Biological target: T1, β2m of the single-chain construct (Homo sapiens (Human)., UniProt P61769)
T1 construct: β2-microglobulin; In the cryo-EM sample it is the middle part of m3; also called B2m; source: part of the single-chain construct m3
Assay: cryo-EM structure; single-chain P2R-linker-β2m-linker-B∗73:01 copurified with Fabs B.1 and B.8; Hepes-buffered saline pH 7.2, about 0.07 mM fluorinated octyl maltoside; 3.1 Å
Settings: both partners purified

T1 sequence (P61769 21-119): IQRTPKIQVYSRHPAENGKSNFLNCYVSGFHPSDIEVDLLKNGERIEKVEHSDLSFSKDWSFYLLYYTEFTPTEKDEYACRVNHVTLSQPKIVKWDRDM

B1: Fab B.1 (Fab, V domains shown)
VH: EVQLVESGGGLVQPGGSLRLSCAASGFNVSYYSIHWVRQAPGKGLEWVASISPYSGSTSYADSVKGRFTISADTSKNTAYLQMNSLRAEDTAVYYCARYSYGNSWSYDPYYGAMDYWGQGTLVTVSS
VL: DIQMTQSPSSLSASVGDRVTITCRASQSVSSAVAWYQQKPGKAPKLLIYSASSLYSGVPSRFSGSRSGTDFTLTISSLQPEDFATYYCQQYYWAPITFGQGTKVEIK
notes: synthetic Fab; model deposited in PDB 8TNJ (constant domain portion not visible in the map)
B1: binds.
